Reference: article PMC5976803, “Engineered membrane protein antigens successfully induce antibodies against extracellular regions of claudin-5” (Scientific Reports, 2018)
Positions count from the first letter of the chain named.

B1: anti-CLDN-5 ECR mAb clone 1B3 (antibody, V domains shown)
VH: QIQLVQSGPELKKPGETVKISCKASGYSFTAHGMSWVKQAPGKGLKWMGWINTYSGVPAYADDFKGRFAFSLETSPSTAFLQINNLKNEDTATYFCTRSHYDRKFGYWGQGTLVTVSA
VL: QAVVTQESALTTSPGETVTLTCRSSTGAVTTSNYANWVQEKPDHLFTGLIGDTNNRAPGVPARFSGSLIGDKAALTITGAQTGDEAIYFCALWYSNLWVFGGGTKLTVR
notes: source: hybridoma from an Antigen1-immunized BXSB mouse; ascitic fluid, purified (Protein G Sepharose); also reconstituted as recombinant antibody
B2: anti-CLDN-5 ECR mAb clone 2B12 (antibody, V domains shown)
VH: QVQLQQSGAELARPGASVKLSCKASGYTFTRFGMSWVKQRTGQGLEWIGEIYPGSGDTYYSENFKGKATLTADKSSGTAYMELRSLTSEDSAVYFCARWGIYYGNPYAMDYWGQGTSVTVSS
VL: DIVMTQAAPSVPVTPGESVSISCRSSKSLLHSNGNTYLYWFLQRPGQSPQLLIYRMSNLASGVPDRFSGSGSGTAFTLRISRVEAEDVGVYYCLQHLEYPFTFGSGTKLEIK
notes: source: hybridoma from an Antigen2-immunized BXSB mouse; ascitic fluid, purified (Protein G Sepharose); also reconstituted as recombinant antibody
B3: anti-CLDN-5 ECR mAb clone 1D1 (antibody, V domains shown)
VH: QVQLQQPGAEHVKPGASVKLSCKASGYTFTTYWIHWVKQRPGRGLEWIGRIAPNSGGTKYNENFKSKATLTVDRPSTTAYMQLSGLTSEDSAVYYCARWDFTFGTNLDYWGQGTTLTVSS
VL: DIVMTQSQKFMSTSVGDRVSITCKASQNVRTAVAWYQQKPGQSPKALIFLASNRHTGVPDRFTGSGSGTDFTLTITNVQSEDLADYFCLQHWTYPYTFGGGTKLEIK
notes: as for B2
B4: anti-CLDN-5 ECR mAb clone 2B1 (antibody, V domains shown)
VH: B3 VH with H11L, Y32F, N54Y, K59T, N63K, S84I, G85S, F103Y, T105S
VL: B3 VL with T22P, F49Y, T76S, Q90G, T93D
notes: as for B2

Target: T1, human claudin-3 expressed in HT-1080 cells (Homo sapiens (Human)., UniProt O15551)
T1 construct: claudin-3, human; also called human CLDN-3; source: HT-1080 cells, stably expressing
T1 sequence (O15551 whole entry): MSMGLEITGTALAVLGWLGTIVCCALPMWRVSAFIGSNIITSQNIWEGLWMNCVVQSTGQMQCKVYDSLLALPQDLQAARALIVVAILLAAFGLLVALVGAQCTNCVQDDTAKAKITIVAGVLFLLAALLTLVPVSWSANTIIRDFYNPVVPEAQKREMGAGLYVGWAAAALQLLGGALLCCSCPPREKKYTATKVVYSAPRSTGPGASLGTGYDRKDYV
Experiment: flow cytometry on cells; HT-1080 cells stably expressing CLDNs or CLDN-5 mutants, detached with 0.05% trypsin/0.02% EDTA; 5 µg/mL mAb; fluorescence-conjugated goat anti-mouse IgG
Conditions: one partner purified

Row | binding result | Binder
1 | no binding (tested: 5 µg/mL) | B1
2 | no binding (tested: 5 µg/mL) | B2
3 | no binding (tested: 5 µg/mL) | B3
4 | no binding (tested: 5 µg/mL) | B4

Target: T2, human claudin-4 expressed in HT-1080 cells (Homo sapiens (Human)., UniProt O14493)
T2 construct: claudin-4, human; also called human CLDN-4; source: HT-1080 cells, stably expressing
Experiment: as above
Conditions: one partner purified

Row | binding result | Binder
5 | no binding (tested: 5 µg/mL) | B1
6 | no binding (tested: 5 µg/mL) | B2
7 | no binding (tested: 5 µg/mL) | B3
8 | no binding (tested: 5 µg/mL) | B4

Target: T3, human claudin-6 expressed in HT-1080 cells (Homo sapiens (Human)., UniProt P56747)
T3 construct: claudin-6, human; also called human CLDN-6; source: HT-1080 cells, stably expressing
T3 sequence (P56747 whole entry): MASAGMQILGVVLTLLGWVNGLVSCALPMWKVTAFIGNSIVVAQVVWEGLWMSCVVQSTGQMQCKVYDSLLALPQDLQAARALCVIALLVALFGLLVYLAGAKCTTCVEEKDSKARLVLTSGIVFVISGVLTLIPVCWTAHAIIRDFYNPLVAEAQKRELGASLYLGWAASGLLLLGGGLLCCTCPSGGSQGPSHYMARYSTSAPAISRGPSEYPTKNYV
Experiment: as above
Conditions: one partner purified

Row | binding result | Binder
9 | no binding (tested: 5 µg/mL) | B1
10 | no binding (tested: 5 µg/mL) | B2
11 | no binding (tested: 5 µg/mL) | B3
12 | no binding (tested: 5 µg/mL) | B4

Target: T4, human claudin-7 expressed in HT-1080 cells (Homo sapiens (Human)., UniProt O95471)
T4 construct: claudin-7, human; also called human CLDN-7; source: HT-1080 cells, stably expressing
T4 sequence (O95471 whole entry): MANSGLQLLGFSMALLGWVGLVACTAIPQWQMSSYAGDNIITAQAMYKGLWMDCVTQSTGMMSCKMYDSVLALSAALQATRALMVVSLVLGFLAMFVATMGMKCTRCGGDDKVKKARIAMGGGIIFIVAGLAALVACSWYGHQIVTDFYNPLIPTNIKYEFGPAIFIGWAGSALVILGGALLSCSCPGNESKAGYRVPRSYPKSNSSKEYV
Experiment: as above
Conditions: one partner purified

Row | binding result | Binder
13 | no binding (tested: 5 µg/mL) | B1
14 | no binding (tested: 5 µg/mL) | B2
15 | no binding (tested: 5 µg/mL) | B3
16 | no binding (tested: 5 µg/mL) | B4

Target: T5, human claudin-5 expressed in HT-1080 cells (Homo sapiens (Human)., UniProt O00501)
T5 construct: claudin-5, human; In the western blot the same protein stood denatured in the cell lysate; The TEER assays used MDCKII cells expressing human CLDN-5; also called human CLDN-5; hCLDN-5; source: HT-1080 cells, stably expressing; on cells and in lysate
T5 sequence (O00501 whole entry): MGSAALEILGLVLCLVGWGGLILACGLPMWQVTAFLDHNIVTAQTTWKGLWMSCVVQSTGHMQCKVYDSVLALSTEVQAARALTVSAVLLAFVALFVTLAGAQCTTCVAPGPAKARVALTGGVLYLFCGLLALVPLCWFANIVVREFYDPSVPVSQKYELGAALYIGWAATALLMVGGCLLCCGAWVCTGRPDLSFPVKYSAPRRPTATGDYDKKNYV
Experiment: as above
Conditions: one partner purified

Row | binding result | Binder
17 | binds | B1
18 | binds | B3
19 | binds | B4

Target: T6, mouse claudin-5 expressed in HT-1080 cells (Mus musculus (Mouse)., UniProt O54942)
T6 construct: claudin-5, mouse; The TEER assays used MDCKII cells expressing mouse CLDN-5; also called mouse CLDN-5; mCLDN-5; source: HT-1080 cells, stably expressing
T6 sequence (O54942 whole entry): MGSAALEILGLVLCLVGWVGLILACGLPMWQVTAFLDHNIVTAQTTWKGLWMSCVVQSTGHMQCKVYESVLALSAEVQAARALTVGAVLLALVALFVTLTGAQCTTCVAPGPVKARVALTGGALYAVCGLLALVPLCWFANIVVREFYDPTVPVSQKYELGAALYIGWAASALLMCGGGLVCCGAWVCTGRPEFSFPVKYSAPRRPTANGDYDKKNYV
Experiment: as above
Conditions: one partner purified

Row | binding result | Binder
20 | no binding (tested: 5 µg/mL) | B1
21 | no binding (tested: 5 µg/mL) | B2
22 | no binding (tested: 5 µg/mL) | B3
23 | no binding (tested: 5 µg/mL) | B4

Target: T7, human claudin-1 expressed in HT-1080 cells (Homo sapiens (Human)., UniProt O95832)
T7 construct: claudin-1, human; also called human CLDN-1; source: HT-1080 cells, stably expressing
T7 sequence (O95832 whole entry): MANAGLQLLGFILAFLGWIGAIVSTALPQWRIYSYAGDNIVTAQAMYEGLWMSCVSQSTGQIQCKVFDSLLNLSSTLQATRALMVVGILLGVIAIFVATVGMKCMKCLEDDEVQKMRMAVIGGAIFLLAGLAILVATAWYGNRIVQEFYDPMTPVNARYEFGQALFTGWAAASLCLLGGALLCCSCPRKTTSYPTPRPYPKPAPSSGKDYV
Experiment: as above
Conditions: one partner purified

Row | binding result | Binder
24 | no binding (tested: 5 µg/mL) | B1
25 | no binding (tested: 5 µg/mL) | B2
26 | no binding (tested: 5 µg/mL) | B3
27 | no binding (tested: 5 µg/mL) | B4

Target: T8, human claudin-2 expressed in HT-1080 cells (Homo sapiens (Human)., UniProt P57739)
T8 construct: claudin-2, human; also called human CLDN-2; source: HT-1080 cells, stably expressing
T8 sequence (P57739 whole entry): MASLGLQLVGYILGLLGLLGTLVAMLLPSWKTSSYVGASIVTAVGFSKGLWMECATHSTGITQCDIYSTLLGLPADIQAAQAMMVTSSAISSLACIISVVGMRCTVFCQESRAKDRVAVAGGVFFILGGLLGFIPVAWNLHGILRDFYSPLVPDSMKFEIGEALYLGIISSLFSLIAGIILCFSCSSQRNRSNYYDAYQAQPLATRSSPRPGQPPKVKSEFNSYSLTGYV
Experiment: as above
Conditions: one partner purified

Row | binding result | Binder
28 | no binding (tested: 5 µg/mL) | B1
29 | no binding (tested: 5 µg/mL) | B2
30 | no binding (tested: 5 µg/mL) | B3
31 | no binding (tested: 5 µg/mL) | B4

Target: T9, AGIA-tagged human CLDN-5, cell-free synthesized proteoliposome (Homo sapiens, UniProt O00501)
T9 construct: claudin-5, human; codon-converted synthetic gene; The vector pEU-E01-AGIA-GW puts a start codon and the AGIA tag at the 5′-end of the cassette, though the label reads hCLDN-5-AGIA; also called hCLDN-5-AGIA; cell-free synthesized CLDN-5; source: wheat cell-free synthesis on liposomes, proteoliposomes collected by centrifugation; not shown: AGIA, N-terminal, kept
T9 sequence (O00501 whole entry): as the sequence (O00501 whole entry) above
Experiment: ELISA; cell-free synthesized AGIA-tagged CLDN proteoliposomes immobilised on a microtiter plate overnight at 4 °C; mAb 10 µg/mL in 5% skimmed milk/T-TBS, 1 h at room temperature; HRP anti-mouse IgG + IgM
Conditions: both partners purified

Row | binding result | Binder
32 | binds | B1
33 | binds | B3
34 | binds | B4

Target: T5, human claudin-5 expressed in HT-1080 …
Experiment: flow cytometry on cells; HT-1080/hCLDN-5 cells with purified mAb at 0.0024–40 µg/mL; mean fluorescence intensity fitted to Y = Bmax • X/(Kd + X); apparent dissociation constant; three independent experiments
Conditions: one partner purified

Row | Kd [nM] | Binder
35 | 7.37 | B2
